Measurements from paper PMC10402242.

Biological target: nuclear transport factor 2 (NUTF2) (human (endogenous in MCF-7)) (UniProt P61970)
Experiment: native MS; native top-down proteomics: whole cell lysates of MCF-7 and MCF-7-EGFR (EGFR-overexpressing) cells fractionated by native SEC, concentrated with molecular weight cutoff filters, direct ESI infusion FAIMS-MSn with HCD, Orbitrap detection; endogenous assemblies

Chain of nuclear transport factor 2 (NUTF2) (P61970 whole entry): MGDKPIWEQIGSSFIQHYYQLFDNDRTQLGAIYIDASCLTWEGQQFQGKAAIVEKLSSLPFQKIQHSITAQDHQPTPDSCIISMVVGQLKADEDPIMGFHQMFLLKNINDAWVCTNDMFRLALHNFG

stoichiometry N: 2
Substance: nuclear transport factor 2 (NUTF2) (from UniProt P61970 1-127) (natural protein; monomeric proteoforms include acetylated, methylated and dimethylated forms (sites K4, K55, K63); monomeric proteoforms include acetylated, methylated and dimethylated forms (sites K4, K55, K63); other documents disagree on this pair)
